Source: patent publication KR20230128271A (dated 2023)

B1: 225Ac-HER3-ARC (Ac225-labelled, DOTA-conjugated anti-HER3 monoclonal antibody, heavy chain SEQ ID NO: 77 and light chain SEQ ID NO: 78) (antibody, V domains shown)
VH: QVQLVESGGGLVKPGGSLRLSCAASGFTFSDYAMSWIRQAPGKGLEWVSTISDGGTYTYYPDSVKGRFTISRDNAKNSLYLQMNSLRAEDTAVYYCAREWGDYDGFDYWGQGTLVTVSS
VL: DIQMTQSPSSLSASVGDRVTITCRASQEISGYLSWYQQKPGKAPKRLIYAASTLDSGVPSRFSGSGSGTEFTLTISSLQPEDFATYYCLQYDSYPYTFGQGTKLEIKR
modifications: DOTA chelator conjugated with p-SCN-Bn-DOTA and chelating actinium-225; sites and chain not stated
notes: also called Ac225 표지된 DOTA-접합된 항-HER3 모노클로날 항체
B2: anti-HER3 IgG monoclonal antibody consisting of heavy chain SEQ ID NO: 77 and light chain SEQ ID NO: 78 (unmodified) (antibody, V domains shown)
VH: B1 VH
VL: B1 VL
notes: It was detected with goat anti-human IgG F(ab')2-HRP; also called 항-HER3; 비변형된 항-HER3 mAb

Molecular target: T1, human recombinant HER3 (coated on ELISA plate) (human, UniProt P21860 20-643)
T1 construct: also called 인간 재조합 HER3
Test: ELISA; plate coated with human recombinant HER3; serial dilutions 0-100 μg/ml; goat anti-human IgG F(ab')2-HRP; absorbance at 450 nm

T1 sequence (P21860 20-643 limits assumed): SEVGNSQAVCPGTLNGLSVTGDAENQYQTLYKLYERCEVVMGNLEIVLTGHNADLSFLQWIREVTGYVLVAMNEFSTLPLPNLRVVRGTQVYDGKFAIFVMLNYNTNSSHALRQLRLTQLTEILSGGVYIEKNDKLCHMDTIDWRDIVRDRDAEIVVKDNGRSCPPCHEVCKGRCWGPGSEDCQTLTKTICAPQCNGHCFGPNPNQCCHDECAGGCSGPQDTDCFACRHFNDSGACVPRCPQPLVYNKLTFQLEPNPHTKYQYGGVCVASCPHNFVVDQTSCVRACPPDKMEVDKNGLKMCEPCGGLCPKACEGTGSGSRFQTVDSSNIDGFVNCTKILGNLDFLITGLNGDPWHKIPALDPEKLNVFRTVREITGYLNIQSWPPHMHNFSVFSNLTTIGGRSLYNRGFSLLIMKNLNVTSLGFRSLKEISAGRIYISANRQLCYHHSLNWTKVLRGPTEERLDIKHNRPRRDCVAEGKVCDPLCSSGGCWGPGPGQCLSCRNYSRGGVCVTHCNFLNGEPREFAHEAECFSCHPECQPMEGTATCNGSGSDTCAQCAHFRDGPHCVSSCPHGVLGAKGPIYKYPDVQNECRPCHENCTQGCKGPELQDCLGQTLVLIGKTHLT

Binder	EC50
B1	1.7 ng/mL
B2	2.2 ng/mL
